The chains are these.
B1: Endonuclease CUE2, residues 9 to 47; numbered along this chain, P36075 (parent)
chain: HESKLSILMDMFPAISKSKLQVHLLENNNDLDLTIGLLL

± gives the uncertainty stated by the source.

This is an account of results in the Human Domainome abundance scans (Beltran et al. 2025).

The data set covers variants of B1. In words: abundance fitness (aPCA) (normalised: wild type 0, dead -1); higher = more abundant; growth selection in yeast, the domain comes from the species named. The conditions noted are these: Saccharomyces cerevisiae (strain ATCC 204508 / S288c).
For the variant HESKLSILMDMGPAISKSKLQVHLLENNNDLDLTIGLLL [F12G], the abundance fitness was -0.905 ± 0.15. The figure for HESKLSILMDMVPAISKSKLQVHLLENNNDLDLTIGLLL [F12V] is -0.9 ± 0.1. Turning to HESKLSILMDMLPAISKSKLQVHLLENNNDLDLTIGLLL [F12L], the abundance fitness was -0.644 ± 0.075.

For the variant HESKLSILMDMKPAISKSKLQVHLLENNNDLDLTIGLLL [F12K], the abundance fitness is -0.966 ± 0.2. The figure for HESKLSILMDMEPAISKSKLQVHLLENNNDLDLTIGLLL [F12E] is -0.884 ± 0.12; for HESKLSILMDMTPAISKSKLQVHLLENNNDLDLTIGLLL [F12T] it is -0.446 ± 0.12. On to HESKLSILMDMWPAISKSKLQVHLLENNNDLDLTIGLLL [F12W], for which the abundance fitness was -0.596 ± 0.097. With HESKLSILMDMPPAISKSKLQVHLLENNNDLDLTIGLLL [F12P], the abundance fitness was -0.611 ± 0.39.

As to HESKLSILMDMSPAISKSKLQVHLLENNNDLDLTIGLLL [F12S], the abundance fitness was -0.808 ± 0.12. As for HESKLSILMDMRPAISKSKLQVHLLENNNDLDLTIGLLL [F12R], the figure is -0.865 ± 0.11. Consider HESKLSILMDMMPAISKSKLQVHLLENNNDLDLTIGLLL [F12M], for which the abundance fitness was -0.548 ± 0.19. As for HESKLSILMDMDPAISKSKLQVHLLENNNDLDLTIGLLL [F12D], the figure is -1.07 ± 0.28. As to HESKLSILMDMFPAMSKSKLQVHLLENNNDLDLTIGLLL [I15M], the abundance fitness was -0.078 ± 0.055.

For the variant HESKLSILMDMFPAFSKSKLQVHLLENNNDLDLTIGLLL [I15F], the abundance fitness was 0.163 ± 0.18. HESKLSILMDMFPAGSKSKLQVHLLENNNDLDLTIGLLL [I15G]: the abundance fitness is -0.735 ± 0.055. As to HESKLSILMDMFPAHSKSKLQVHLLENNNDLDLTIGLLL [I15H], the abundance fitness is 0.022 ± 0.062.

HESKLSILMDMFPAESKSKLQVHLLENNNDLDLTIGLLL [I15E]: the abundance fitness is -0.017 ± 0.042. The figure for HESKLSILMDMFPADSKSKLQVHLLENNNDLDLTIGLLL [I15D] is -0.293 ± 0.11. As for HESKLSILMDMFPALSKSKLQVHLLENNNDLDLTIGLLL [I15L], the figure is -0.08 ± 0.063; as for HESKLSILMDMFPAKSKSKLQVHLLENNNDLDLTIGLLL [I15K], -0.142 ± 0.054; as for HESKLSILMDMFPTISKSKLQVHLLENNNDLDLTIGLLL [A14T], -0.163 ± 0.22.

As to HESKLSILMDMFPWISKSKLQVHLLENNNDLDLTIGLLL [A14W], the abundance fitness is -0.047 ± 0.034. The figure for HESKLSILMDMFPRISKSKLQVHLLENNNDLDLTIGLLL [A14R] is -0.018 ± 0.036. Regarding HESKLSILMDMFPLISKSKLQVHLLENNNDLDLTIGLLL [A14L], the abundance fitness was -0.053 ± 0.036.

HESKLSILMDMFPFISKSKLQVHLLENNNDLDLTIGLLL [A14F]: the abundance fitness was -0.033 ± 0.089. In the case of HESKLSILMDMFPVISKSKLQVHLLENNNDLDLTIGLLL [A14V], the abundance fitness is -0.079 ± 0.047. As for HESKLSILMDMFPGISKSKLQVHLLENNNDLDLTIGLLL [A14G], the figure is 0.012 ± 0.031. For the variant HESKLSILMDMFPMISKSKLQVHLLENNNDLDLTIGLLL [A14M], the abundance fitness was -0.133 ± 0.061. As for HESKLSILMDMFPPISKSKLQVHLLENNNDLDLTIGLLL [A14P], the figure is -0.383 ± 0.076; as for HESKLSILMDMFPEISKSKLQVHLLENNNDLDLTIGLLL [A14E], 0.068 ± 0.039. For the variant HESKLSILMDMFPCISKSKLQVHLLENNNDLDLTIGLLL [A14C], the abundance fitness is -0.093 ± 0.068. For HESKLSILMDMFPSISKSKLQVHLLENNNDLDLTIGLLL [A14S], the abundance fitness came to 0.068 ± 0.046. Take HESKLSILMDMFPDISKSKLQVHLLENNNDLDLTIGLLL [A14D]: the abundance fitness is -0.118 ± 0.13. Regarding HESKLSILMDMFPQISKSKLQVHLLENNNDLDLTIGLLL [A14Q], the abundance fitness amounted to 0.012 ± 0.045.

Consider HESKLSILMWMFPAISKSKLQVHLLENNNDLDLTIGLLL [D10W], for which the abundance fitness was -0.691 ± 0.092. As for HESKLSILMVMFPAISKSKLQVHLLENNNDLDLTIGLLL [D10V], the figure is -0.336 ± 0.044; as for HESKLSILMDMFTAISKSKLQVHLLENNNDLDLTIGLLL [P13T], -0.861 ± 0.18.

In the case of HESKLSILMDMFRAISKSKLQVHLLENNNDLDLTIGLLL [P13R], the abundance fitness is -0.951 ± 0.11. Regarding HESKLSILMDMFQAISKSKLQVHLLENNNDLDLTIGLLL [P13Q], the abundance fitness is -0.752 ± 0.13. The figure for HESKLSILMDMFLAISKSKLQVHLLENNNDLDLTIGLLL [P13L] is -0.795 ± 0.1.

Take HESKLSILMDMFFAISKSKLQVHLLENNNDLDLTIGLLL [P13F]: the abundance fitness is -0.868 ± 0.37. The figure for HESKLSILMDMFGAISKSKLQVHLLENNNDLDLTIGLLL [P13G] is -0.834 ± 0.07; for HESKLSILMDMFEAISKSKLQVHLLENNNDLDLTIGLLL [P13E] it is -0.349 ± 0.083; for HESKLSILMDMFSAISKSKLQVHLLENNNDLDLTIGLLL [P13S] it is -0.806 ± 0.12. For the variant HESKLSILMDMFIAISKSKLQVHLLENNNDLDLTIGLLL [P13I], the abundance fitness was -0.804 ± 0.17. With HESKLSILMDMFAAISKSKLQVHLLENNNDLDLTIGLLL [P13A], the abundance fitness was -0.602 ± 0.11. In the case of HESKLSILMDMFHAISKSKLQVHLLENNNDLDLTIGLLL [P13H], the abundance fitness is -1.06 ± 0.3. HESKLSILMDMFWAISKSKLQVHLLENNNDLDLTIGLLL [P13W]: the abundance fitness is -1.04 ± 0.14. For HESKLSILMDMFDAISKSKLQVHLLENNNDLDLTIGLLL [P13D], the abundance fitness is -0.898 ± 0.18. As for HESKLSILMDMFCAISKSKLQVHLLENNNDLDLTIGLLL [P13C], the figure is -0.67 ± 0.18; as for HESKLSILMDMFKAISKSKLQVHLLENNNDLDLTIGLLL [P13K], -0.781 ± 0.16; as for HESKLSILMDMFMAISKSKLQVHLLENNNDLDLTIGLLL [P13M], -0.72 ± 0.16.

Regarding HESKLSILMDDFPAISKSKLQVHLLENNNDLDLTIGLLL [M11D], the abundance fitness is -0.758 ± 0.12. As for HESKLSILMDPFPAISKSKLQVHLLENNNDLDLTIGLLL [M11P], the figure is -0.748 ± 0.28. The figure for HESKLSILMDGFPAISKSKLQVHLLENNNDLDLTIGLLL [M11G] is -0.746 ± 0.074.

For the variant HESKLSILMDVFPAISKSKLQVHLLENNNDLDLTIGLLL [M11V], the abundance fitness was -0.447 ± 0.058. On to HESKLSILMDNFPAISKSKLQVHLLENNNDLDLTIGLLL [M11N], for which the abundance fitness was -0.209 ± 0.26. For HESKLSILMDEFPAISKSKLQVHLLENNNDLDLTIGLLL [M11E], the abundance fitness is -0.274 ± 0.051. For HESKLSILMDLFPAISKSKLQVHLLENNNDLDLTIGLLL [M11L], the abundance fitness was -0.184 ± 0.083. As for HESKLSILMDHFPAISKSKLQVHLLENNNDLDLTIGLLL [M11H], the figure is -0.297 ± 0.14; as for HESKLSILMDSFPAISKSKLQVHLLENNNDLDLTIGLLL [M11S], -0.421 ± 0.15; as for HESKLSILMDQFPAISKSKLQVHLLENNNDLDLTIGLLL [M11Q], -0.077 ± 0.037. The figure for HESKLSILMDAFPAISKSKLQVHLLENNNDLDLTIGLLL [M11A] is -0.16 ± 0.049; for HESKLSILMDWFPAISKSKLQVHLLENNNDLDLTIGLLL [M11W] it is -0.413 ± 0.048.
